Test [1] concerns the target T1, human 14-3-3ε (human), P62258.
T1 chain: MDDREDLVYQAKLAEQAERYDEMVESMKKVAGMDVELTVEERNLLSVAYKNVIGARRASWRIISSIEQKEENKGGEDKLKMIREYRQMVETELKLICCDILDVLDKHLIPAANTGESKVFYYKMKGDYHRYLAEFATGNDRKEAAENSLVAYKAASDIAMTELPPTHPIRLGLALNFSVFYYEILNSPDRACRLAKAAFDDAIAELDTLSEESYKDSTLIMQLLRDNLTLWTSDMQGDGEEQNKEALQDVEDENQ
As to the kind of experiment: crystal structure. The note with it: remark: other sources report otherwise.

Test [2] addresses full length CrkII, dimer (CrkII^FL dimer) (human), P46108. As to the kind of experiment: SEC. The settings on record: remark: other sources report otherwise.

B1: human 14-3-3ε, P62258-1 1-255 (natural protein)
chain: MDDREDLVYQAKLAEQAERYDEMVESMKKVAGMDVELTVEERNLLSVAYKNVIGARRASWRIISSIEQKEENKGGEDKLKMIREYRQMVETELKLICCDILDVLDKHLIPAANTGESKVFYYKMKGDYHRYLAEFATGNDRKEAAENSLVAYKAASDIAMTELPPTHPIRLGLALNFSVFYYEILNSPDRACRLAKAAFDDAIAELDTLSEESYKDSTLIMQLLRDNLTLWTSDMQGDGEEQNKEALQDVEDENQ
In test [1], B1 came in with a stoichiometry N of 2.

B2: full length CrkII, dimer (CrkII^FL dimer), P46108-1 1-304 (natural protein)
chain: MAGNFDSEERSSWYWGRLSRQEAVALLQGQRHGVFLVRDSSTSPGDYVLSVSENSRVSHYIINSSGPRPPVPPSPAQPPPGVSPSRLRIGDQEFDSLPALLEFYKIHYLDTTTLIEPVSRSRQGSGVILRQEEAEYVRALFDFNGNDEEDLPFKKGDILRIRDKPEEQWWNAEDSEGKRGMIPVPYVEKYRPASASVSALIGGNQEGSHPQPLGGPEPGPYAQPSVNTPLPNLQNGPIYARVIQKRVPNAYDKTALALEVGELVKVTKINVSGQWEGECNGKRGHFPFTHVRLLDQQNPDEDFS
On to B2, for which, in test [2], the percent of the total isolated protein that is dimer came out at 10% and the stoichiometry N worked out at 2.

For orientation: stoichiometry N means a count of units in the complex or per binding partner.

Values taken from doi:10.1101/2022.09.01.506260.
